Experimental findings from patent US20250361320A1 are described below.

This test addresses human CEACAM5 on cells (MKN45, BxPC-3, Ls174T, HCT116-huCEACAM5) (human) (UniProt P06731). The test can be described thus: flow cytometry on BxPC-3 cells (medium, 60,000 receptors/cell).

Chain of human CEACAM5 on cells (MKN45, BxPC-3, Ls174T, HCT116-huCEACAM5) (human) (P06731 35-685 T210S limits assumed): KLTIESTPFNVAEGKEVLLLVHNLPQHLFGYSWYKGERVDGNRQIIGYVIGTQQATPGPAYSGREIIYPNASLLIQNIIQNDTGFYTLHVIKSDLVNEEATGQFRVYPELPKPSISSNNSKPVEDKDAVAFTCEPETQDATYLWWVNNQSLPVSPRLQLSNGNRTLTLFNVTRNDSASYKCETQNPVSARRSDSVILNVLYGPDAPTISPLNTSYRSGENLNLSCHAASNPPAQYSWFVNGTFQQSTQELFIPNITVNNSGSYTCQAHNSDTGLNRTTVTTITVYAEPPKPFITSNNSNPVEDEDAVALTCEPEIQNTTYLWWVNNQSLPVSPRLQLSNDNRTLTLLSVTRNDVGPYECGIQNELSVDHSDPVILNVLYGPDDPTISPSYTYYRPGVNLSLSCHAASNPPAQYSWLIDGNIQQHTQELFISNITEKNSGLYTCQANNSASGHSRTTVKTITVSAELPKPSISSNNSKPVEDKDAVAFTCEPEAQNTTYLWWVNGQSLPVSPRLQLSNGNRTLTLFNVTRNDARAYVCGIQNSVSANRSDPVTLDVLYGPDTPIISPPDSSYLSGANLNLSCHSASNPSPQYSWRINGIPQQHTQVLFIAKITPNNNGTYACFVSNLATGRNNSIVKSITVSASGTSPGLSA

For mAb Control 3 (antibody), the EC50 (read off the curve) (in general, the midpoint of the concentration-response curve) was 8 nM.
